Data taken from patent US20200040059A1.
Values joined by “and” are separate entries in the source; they are usually repeats but may differ in a detail not shown here. Equal values may be shown once.

Tests used:
[1] = molecular target: human CD28, full-length, expressed on transfected Expi293 cells (human) (UniProt P10747); assay: flow cytometry on CD28-expressing Expi293 cells
PD-L1 (human) = PD-L1 (human) (UniProt Q9NZQ7); assay: flow cytometry on HEK293 cells transfected with PD-L1
CTLA4 (human) = CTLA4 (human) (UniProt P16410); assay: flow cytometry on HEK293 cells transfected with CTLA4
CTLA4 (human), sequence (P16410 36-223 limits assumed): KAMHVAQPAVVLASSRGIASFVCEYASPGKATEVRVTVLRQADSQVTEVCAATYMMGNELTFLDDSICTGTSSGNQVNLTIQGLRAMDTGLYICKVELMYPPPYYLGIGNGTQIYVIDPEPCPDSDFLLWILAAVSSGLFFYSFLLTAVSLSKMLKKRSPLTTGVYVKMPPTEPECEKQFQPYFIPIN

[2] = molecular target: PD-1 (Homo sapiens (Human)) (UniProt Q15116); assay: flow cytometry, cells expressing PD-1
CD112R (human) = CD112R (human) (UniProt Q6DKI7); assay: flow cytometry, cells expressing target, 25 nM
CD112R (human), sequence (Q6DKI7 whole entry): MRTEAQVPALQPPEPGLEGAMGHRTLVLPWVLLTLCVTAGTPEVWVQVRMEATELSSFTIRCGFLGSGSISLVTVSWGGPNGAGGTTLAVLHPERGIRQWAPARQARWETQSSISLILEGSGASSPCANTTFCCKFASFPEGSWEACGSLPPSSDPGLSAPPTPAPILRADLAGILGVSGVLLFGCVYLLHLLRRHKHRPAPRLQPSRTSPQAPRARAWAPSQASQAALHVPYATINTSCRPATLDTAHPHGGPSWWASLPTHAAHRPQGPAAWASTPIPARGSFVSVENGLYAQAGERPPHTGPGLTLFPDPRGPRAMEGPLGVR

TIGIT (human) = molecular target: T1, TIGIT (human) (UniProt Q495A1); assay: flow cytometry, cells expressing target, 25 nM
T1 sequence: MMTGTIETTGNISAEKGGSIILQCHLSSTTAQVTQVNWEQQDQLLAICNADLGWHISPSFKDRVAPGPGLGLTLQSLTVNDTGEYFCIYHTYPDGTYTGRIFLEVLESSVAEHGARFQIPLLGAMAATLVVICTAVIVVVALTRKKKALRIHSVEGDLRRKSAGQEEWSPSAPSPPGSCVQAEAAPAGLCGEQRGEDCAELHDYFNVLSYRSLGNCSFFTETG

CD96 = molecular target: T2, CD96 (UniProt P40200); assay: flow cytometry, cells expressing target, 25 nM
T2 sequence (looked up): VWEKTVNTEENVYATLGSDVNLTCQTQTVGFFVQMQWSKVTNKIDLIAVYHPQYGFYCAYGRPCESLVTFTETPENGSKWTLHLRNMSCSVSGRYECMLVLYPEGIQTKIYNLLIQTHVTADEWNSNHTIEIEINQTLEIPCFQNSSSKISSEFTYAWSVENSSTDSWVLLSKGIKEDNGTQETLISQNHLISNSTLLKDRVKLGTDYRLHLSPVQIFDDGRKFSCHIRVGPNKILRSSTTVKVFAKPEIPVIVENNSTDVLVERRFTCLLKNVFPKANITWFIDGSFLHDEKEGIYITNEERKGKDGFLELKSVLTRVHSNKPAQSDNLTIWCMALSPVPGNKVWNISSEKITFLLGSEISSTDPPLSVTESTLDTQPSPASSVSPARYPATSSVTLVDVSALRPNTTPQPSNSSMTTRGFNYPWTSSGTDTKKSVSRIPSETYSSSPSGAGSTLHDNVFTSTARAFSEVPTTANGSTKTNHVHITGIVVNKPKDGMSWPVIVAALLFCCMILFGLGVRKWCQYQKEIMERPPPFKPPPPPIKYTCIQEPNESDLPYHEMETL

CD226 (human) = molecular target: T3, CD226 (human) (UniProt Q15762); assay: flow cytometry, cells expressing target, 25 nM
T3 sequence: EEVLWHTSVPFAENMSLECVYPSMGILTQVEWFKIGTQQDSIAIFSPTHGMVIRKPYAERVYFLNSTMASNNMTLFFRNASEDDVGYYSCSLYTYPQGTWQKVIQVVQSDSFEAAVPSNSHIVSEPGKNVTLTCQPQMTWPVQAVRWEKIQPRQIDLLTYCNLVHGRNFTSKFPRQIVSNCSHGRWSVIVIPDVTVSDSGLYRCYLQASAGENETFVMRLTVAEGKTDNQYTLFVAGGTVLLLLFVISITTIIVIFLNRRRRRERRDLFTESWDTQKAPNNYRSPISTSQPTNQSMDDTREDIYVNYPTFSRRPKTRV

[3] = molecular target: CD80 (Homo sapiens (Human)) (UniProt P33681); assay: flow cytometry, cells expressing CD80
CD80 (Homo sapiens (Human)), sequence (P33681 35-288 limits assumed, form in doubt): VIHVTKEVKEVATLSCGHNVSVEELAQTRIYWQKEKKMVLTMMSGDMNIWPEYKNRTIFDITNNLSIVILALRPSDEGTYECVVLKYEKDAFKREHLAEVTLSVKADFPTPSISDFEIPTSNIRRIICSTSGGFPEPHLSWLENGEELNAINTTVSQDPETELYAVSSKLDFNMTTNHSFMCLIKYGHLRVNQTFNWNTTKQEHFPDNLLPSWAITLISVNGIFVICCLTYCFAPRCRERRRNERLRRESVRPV

[4] = molecular target: CD112R, expressed on transfected cells (human) (UniProt Q6DKI7); assay: flow cytometry on transfected cells
CD112R, expressed on transfected cells (human), sequence (Q6DKI7 whole entry): as the sequence (Q6DKI7 whole entry) above

[5] = molecular target: CD96, expressed on transfected cells (UniProt P40200); assay: flow cytometry on transfected cells
[6] = molecular target: T4, human CD226, full length, expressed on transfected cells (human) (UniProt Q15762); assay: flow cytometry on transfected cells
T4 sequence: T3 sequence

[7] = molecular target: T5, human TIGIT, full length, expressed on transfected cells (human) (UniProt Q495A1); assay: flow cytometry on transfected cells
T5 sequence: T1 sequence

PD-L1 (human), sequence (Q9NZQ7 19-290 limits assumed): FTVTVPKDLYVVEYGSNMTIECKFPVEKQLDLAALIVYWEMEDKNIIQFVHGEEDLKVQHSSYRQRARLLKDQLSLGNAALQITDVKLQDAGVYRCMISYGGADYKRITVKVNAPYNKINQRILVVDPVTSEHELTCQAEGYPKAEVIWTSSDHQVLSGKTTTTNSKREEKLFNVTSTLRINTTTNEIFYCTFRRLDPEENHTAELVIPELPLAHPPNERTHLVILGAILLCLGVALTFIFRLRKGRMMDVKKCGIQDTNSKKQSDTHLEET
wild-type CD155 IgV-Fc, sequence (P15151 24-139 limits assumed): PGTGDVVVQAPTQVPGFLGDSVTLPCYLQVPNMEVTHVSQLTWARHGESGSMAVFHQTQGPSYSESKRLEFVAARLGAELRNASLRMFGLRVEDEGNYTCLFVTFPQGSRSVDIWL

| Substance | MFI at 25 nM (CD112R (human)) | MFI at 25 nM (TIGIT (human)) | MFI at 25 nM (CD96) | MFI at 25 nM (CD226 (human)) | other results |
| --- | --- | --- | --- | --- | --- |
| CD80 variant M38V/T41D/M43I/W50G/D76G/V83A/K89E/T120S/T130A ECD-Fc fusion (from UniProt P33681 35-242) | – | – | – | – | MFI [1]: 5 MFI |
| CD80 IgV-Fc M43I/C82R (from UniProt P33681 35-141) (Fc fusion) | – | – | – | – | MFI at 22.2 nM (PD-L1 (human)): 7400 MFI; MFI at 66.6 nM (CTLA4 (human)): 3640 MFI |
| variant PD-L1 ECD-Fc M18V, M97L, F193S, R195G, E200K, H202Q (from UniProt Q9NZQ7 19-238) (Fc fusion) | – | – | – | – | MFI at 20 nM [2]: 69 |
| variant PD-L1 ECD-Fc I36T, M97L, Q155H, F193S, N201Y (Fc fusion) | – | – | – | – | MFI at 20 nM [3]: 1250; MFI at 20 nM [2]: 69 |
| CD80 IgV-Fc M47L/V68A (from UniProt P33681 35-141) (Fc fusion) | – | – | – | – | MFI at 66.6 nM (CTLA4 (human)): 74200 MFI |
| CD155 variant IgV-Fc P18T, W46C, H49R, S65A, S67V, A76T, L79P, S87T, L104M (from UniProt P15151 24-139) (Fc fusion) | 803 MFI | 918 MFI | 717 MFI | 640 MFI | – |
| CD155 variant IgV-Fc V9A, P18S, M36T, S65G, L79P, F91S, L104T, G111R, S112I (from UniProt P15151 24-139) (Fc fusion) | 886 MFI | 92500 MFI | – | 989 MFI | – |
| CD155 variant IgV-Fc P18T, M55L, T61R, L79P, F91S, V106I, T107M (from UniProt P15151 24-139) (Fc fusion) | 827 MFI | 133000 MFI | 57900 MFI | 1910 MFI | – |
| variant PD-L1 ECD-Fc G15A, I36T, M97L, K111E, H202Q (from UniProt Q9NZQ7 19-238) (Fc fusion) | – | – | – | – | MFI at 20 nM [2]: 112 |
| ICOSL variant N52S/S130G/Y152C ECD-Fc fusion (from UniProt O75144 19-256) | – | – | – | – | MFI [1]: 24 MFI |
| CD155 variant S42N, L104Q, G111R IgV-Fc (from UniProt P15151 24-139) (Fc fusion) | – | – | – | – | MFI at 100 nM [4]: 1850; MFI at 100 nM [5]: 1960; MFI at 100 nM [6]: 2310; MFI at 100 nM [7]: 2430 |
| CD155 variant Q62Y IgV-Fc (from UniProt P15151 24-139) (Fc fusion) | – | – | – | – | MFI at 100 nM [4]: 1920; MFI at 100 nM [5]: 1830; MFI at 100 nM [6]: 2620; MFI at 100 nM [7]: 2530 |
| CD155 variant IgV-Fc V9L, V11M, P18S, N35S, S54G, Q62K, L79P, L104M, T107M, V115M (from UniProt P15151 24-139) (Fc fusion) | 893 MFI | 3000 MFI | 925 MFI | 2320 MFI | – |
| CD80 IgV-Fc V22L/M38V/M47T/A71D/L85M (from UniProt P33681 35-141) (Fc fusion) | – | – | – | – | MFI at 22.2 nM (PD-L1 (human)): 6140 MFI; MFI at 66.6 nM (CTLA4 (human)): 175000 MFI |
| CD155 variant S52L IgV-Fc (from UniProt P15151 24-139) (Fc fusion) | – | – | – | – | MFI at 100 nM [4]: 2040; MFI at 100 nM [5]: 2040; MFI at 100 nM [6]: 2680; MFI at 100 nM [7]: 2220 |
| CD155 variant T45Q, S52L, L104E, G111R IgV-Fc (from UniProt P15151 24-139) (Fc fusion) | – | – | – | – | MFI at 100 nM [4]: 1740; MFI at 100 nM [5]: 1580; MFI at 100 nM [6]: 2390; MFI at 100 nM [7]: 2290 |
| CD155 variant S52M, L104Q IgV-Fc (from UniProt P15151 24-139) (Fc fusion) | – | – | – | – | MFI at 100 nM [4]: 1710; MFI at 100 nM [5]: 1630; MFI at 100 nM [6]: 2250; MFI at 100 nM [7]: 2670 |
| CD80 IgV-Fc L70P/F92S (from UniProt P33681 35-141) (Fc fusion) | – | – | – | – | MFI at 22.2 nM (PD-L1 (human)): 6170 MFI; MFI at 66.6 nM (CTLA4 (human)): 4040 MFI |
| wild-type CD155 IgV-Fc (from UniProt P15151 24-139) (Fc fusion) | – | – | – | – | MFI at 100 nM [4]: 2170 and 1740 and 2940; MFI at 100 nM [5]: 1890 and 1680 and 3270; MFI at 100 nM [6]: 2320 and 2370 and 4690; MFI at 100 nM [7]: 2180 and 4690 |
| variant PD-L1 ECD-Fc G15A, I36T, V129D, R195G (from UniProt Q9NZQ7 19-238) (Fc fusion) | – | – | – | – | MFI at 20 nM [2]: 125 |
| CD80 IgV-Fc E35D/M47I (from UniProt P33681 35-141) (Fc fusion) | – | – | – | – | MFI at 22.2 nM (PD-L1 (human)): 150000 MFI; MFI at 66.6 nM (CTLA4 (human)): 354000 MFI |
| CD80 IgV-Fc N55D/K86M (from UniProt P33681 35-141) (Fc fusion) | – | – | – | – | MFI at 22.2 nM (PD-L1 (human)): 5090 MFI; MFI at 66.6 nM (CTLA4 (human)): 3540 MFI |
| CD155 variant IgV-Fc P18S, H59N, V75A, L79P, A81T, F91S, L104M, T107M (from UniProt P15151 24-139) (Fc fusion) | 915 MFI | 800 MFI | 759 MFI | 676 MFI | – |

The next lines start with results.

| MFI at 25 nM (CD112R (human)) | MFI at 25 nM (TIGIT (human)) | MFI at 25 nM (CD96) | MFI at 25 nM (CD226 (human)) | Substance | other results |
| --- | --- | --- | --- | --- | --- |
| 1010 MFI | 46100 MFI | 61800 MFI | 15700 MFI | CD155 variant IgV-Fc P18F, E51V, S54G, Q60R, L79Q, E82G, S87T, M90I, F91S, G92R, T107M (from UniProt P15151 24-139) (Fc fusion) | – |
| 920 MFI | 58700 MFI | 67400 MFI | – | CD155 variant IgV-Fc V9L, P18L, M55V, S69L, L79P, A81E, F91S, T107M (from UniProt P15151 24-139) (Fc fusion) | – |
| 854 MFI | 16200 MFI | 1180 MFI | 793 MFI | CD155 variant IgV-Fc P18S, K70R, L79P, F91S, G111R (from UniProt P15151 24-139) (Fc fusion) | – |
| 1040 MFI | 45900 MFI | 1220 MFI | 744 MFI | CD155 variant IgV-Fc P18T, T39S, S52P, S54R, L79P, F91S, T107M (from UniProt P15151 24-139) (Fc fusion) | – |
| 752 MFI | 55200 MFI | 102000 MFI | 54300 MFI | CD155 variant IgV-Fc V9I, P18F, A47E, G50S, E68G, L79P, F91S, T107M (from UniProt P15151 24-139) (Fc fusion) | – |
| 863 MFI | 4250 MFI | 3640 MFI | – | CD155 variant IgV-Fc V10G, P18T, L72Q, L79P, F91S, T107M (from UniProt P15151 24-139) (Fc fusion) | – |
| 830 MFI | 45200 MFI | 33900 MFI | 913 MFI | CD155 variant IgV-Fc V11A, P18F, D23A, L79P, G80D, V95A, T107M (from UniProt P15151 24-139) (Fc fusion) | – |
| 817 MFI | 52500 MFI | 97800 MFI | – | CD155 variant IgV-Fc D8G, V9I, V11A, P18T, T26M, S52P, L79P, F91S, G92A, T107L, V115A (from UniProt P15151 24-139) (Fc fusion) | – |
| 901 MFI | 1170 MFI | 998 MFI | 792 MFI | CD155 variant IgV-Fc V10F, T15S, P18L, R48Q, L79P, F91S, T107M, V115M (from UniProt P15151 24-139) (Fc fusion) | – |
| 1280 MFI | 905 MFI | 726 MFI | 748 MFI | CD155 variant IgV-Fc P18T, G19D, M36T, S54N, L79P, L83Q, F91S, T107M, F108Y (from UniProt P15151 24-139) (Fc fusion) | – |
| 918 MFI | 108000 MFI | – | 853 MFI | CD155 variant IgV-Fc P18F, H40Q, T61K, Q62K, L79P, F91S, L104M, T107V (from UniProt P15151 24-139) (Fc fusion) | – |
